Measured values published in patent US20160333063A1, “SOLUBLE HIGH MOLECULAR WEIGHT (HMW) TAU SPECIES AND APPLICATIONS THEREOF” (THE GENERAL HOSPITAL CORPORATION, priority 2013, published 2016).

Molecular target: amyloid beta (Aβ, measured as Aβ40) in conditioned medium from Tg2576 neuronal cultures (TgCM) (human and murine) (UniProt P05067)
Test: immunodepletion of TgCM with 9 µg 6E10 and Protein G-Sepharose beads; Aβ40 ELISA of the supernatant (TgCM about 12 nM Aβ40 before depletion)

Chain of amyloid beta (Aβ, measured as Aβ40) in conditioned medium from Tg2576 neuronal cultures (TgCM) (human and murine) (P05067 672-711 limits assumed): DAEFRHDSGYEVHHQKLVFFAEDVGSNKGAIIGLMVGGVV

Aβ40 left in the medium after immunodepletion: 0.1 nM
Substance: 6E10 (Signet), a high-titer mouse monoclonal Aβ antibody reactive to amino acid residue 1-16 of beta amyloid
